According to publication PMC4906247:

Tests used:
[1] = biological target: hDAPK2 CD + ARD BL mutant (Arg47, Arg50, Arg53, Arg54 to glutamate) (human); experiment: SAXS; EMBL P12 (PETRA-III), 2.0-15.0 mg/ml, 283 K; monomer/dimer equilibrium mixture fitted (OLIGOMER)
[2] = biological target: calcium/calmodulin on Sepharose 4B (Sepharose 4B-CaM) (UniProt P0DP23); experiment: pull-down; CaM pull-down of purified hDAPK2 variants, SDS-PAGE with Coomassie blue staining, three repetitions
[3] = biological target: CrAsH-tagged calmodulin, calcium-bound (Ca^2+/CrAsH-CaM) (UniProt P0DP23); experiment: fluorescence polarisation; fluorescence anisotropy, purified hDAPK2 CD + ARD variants titrated against Ca2+/CrAsH-CaM; KD estimated by non-linear regression, one-site specific binding (Prism), three experiments
[4] = biological target: hDAPK2 CD + ARD W305D, BiFC construct (human); experiment: split reporter (BiFC, NanoBiT); bimolecular fluorescence complementation in HEK293T cells, readout normalized to protein expression; endogenous Ca2+/CaM present
[5] = biological target: calcium/calmodulin on Sepharose 4B (Sepharose 4B-CaM) (UniProt P0DP23); experiment: pull-down; CaM pull-down of hDAPK2 variants from transfected HEK293T cells on Sepharose 4B-CaM, EGTA-mediated elution, western blot, three replicates

Row | Substance | Kd [3] [nM] | further results
1 | hDAPK2 CD + ARD BL mutant (Arg47, Arg50, Arg53, Arg54 to glutamate) (domain or fragment) |  | percent monomer [1]: 89%; percent of the Ca2+/CaM binding of WT [2]: 46 % of WT
2 | hDAPK2 CD + ARD S308A, D220K (domain or fragment) | < 3.5 | 
3 | hDAPK2 CD + ARD S308A, L226R (domain or fragment) | < 3.5 | 
4 | hDAPK2 CD + ARD W305D, BiFC construct (domain or fragment) |  | fold increase of the BiFC signal [4]: > 5 fold
5 | hDAPK2 CD + ARD W305D, D220K (domain or fragment) | 9700 | 
6 | hDAPK2 CD + ARD W305D, L226R (domain or fragment) | 2700 | 
7 | hDAPK2 W305D D220K mutant expressed in HEK293T cells (CaM pull-down from lysate) (natural protein) |  | fold increase of Ca2+/CaM binding against hDAPK2 W305D [5]: 2 fold
